Patent EP4814019A1 (Zhejiang University, dated 2026)
Each block holds one binder with its values, some of them ahead of it.

Target: T1, …-HLA A0201 complex (human, biotinylated with BirA (site not stated))
T1 construct: Held on streptavidin in the ELISA and in SPR; also called NY-ESO-1 antigen; positive antigen NY-ESO-1
Assay: SPR (BIAcore), biotinylated pMHC on streptavidin-coupled CM5 chip, nanobody as analyte

Kd: 96.6 nM
B1: NY-ESO-1-VHH-1 (VHH)
VHH: QVQLQESGGGLVQAGGSLRLSCAASGTIFHQIDMGWYRQAPGKERELVAAIGTGSSTYYADSVKGRFTISRDNAKNTVYLQMNSLKPEDTAVYYCAAWHYYWGQGTQVTVSS
notes: Synthetic nanobody from a yeast display library

Kd: 68.1 nM
B2: NY-ESO-1-VHH-5 (VHH)
VHH: QVQLQESGGGLVQAGGSLRLSCAASGNISAVYTMGWYRQAPGKEREFVAAIDYGGSTYYADSVKGRFTISRDNAKNTVYLQMNSLKPEDTAVYYCASYYHGYWGQGTQVTVSS
notes: as for B1

Kd: 1170 nM
B3: NY-ESO-1-VHH-9 (VHH)
VHH: QVQLQESGGGLVQAGGSLRLSCAASGYISYLNTMGWYRQAPGKEREFVATIGQGSSTYYADSVKGRFTISRDNAKNTVYLQMNSLKPEDTAVYYCADQLGYWGQGTQVTVSS
notes: as for B1

Kd: 102 nM
B4: NY-ESO-1-VHH-4 (VHH)
VHH: QVQLQESGGGLVQAGGSLRLSCAASGNIFYPQYMGWYRQAPGKEREFVAAISDGASTYYADSVKGRFTISRDNAKNTVYLQMNSLKPEDTAVYYCADLWYWGQGTQVTVSS
notes: as for B1
